# Measured values taken from patent US20210388087A1 (Chugai, published 2021).
# Target: T1, Human CD137 ECD (human)
# T1 construct: entry includes C-terminal His-tag and biotin acceptor peptide; also called human CD137 extracellular domain; 4-1BB
# Test: Biacore SPR, vs parent H183/L072
# T1 sequence (chain, as listed by the source limits assumed): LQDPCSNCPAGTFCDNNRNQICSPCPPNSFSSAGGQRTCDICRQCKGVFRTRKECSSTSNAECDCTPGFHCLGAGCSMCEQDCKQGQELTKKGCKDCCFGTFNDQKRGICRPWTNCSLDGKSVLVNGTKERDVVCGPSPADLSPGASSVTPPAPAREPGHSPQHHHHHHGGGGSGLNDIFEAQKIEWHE
row,Binder,fold change of affinity [fold]
1,"H183/L072 VL H27dF (antibody, name in Kabat numbering, V domains shown, Dual-Ig) VH: QVQLVESGGGLVQPGRSLRLSCAASGFTFSNAWMHWVRQAPGKGLEWVAQIKDKGNAYAAYYAPSVKGRFTISRDDSKNSIYLQMNSLKTEDTAVYYCHYVHYASASTVLPAFGVDAWGQGTTVTVSS VL: DIVMTQSPLSLPVTPGEPASISCQASQELVFMNRNTYLHWYQQKPGQAPRLLIYKVSNRFPGVPDRFSGSGSGTDFTLKISRVEAEDVGVYYCAQGTSVPFTFGQGTKLEIK",0.4
2,"H183/L072 VL H34M (antibody, name in Kabat numbering, V domains shown, Dual-Ig) VH: QVQLVESGGGLVQPGRSLRLSCAASGFTFSNAWMHWVRQAPGKGLEWVAQIKDKGNAYAAYYAPSVKGRFTISRDDSKNSIYLQMNSLKTEDTAVYYCHYVHYASASTVLPAFGVDAWGQGTTVTVSS VL: DIVMTQSPLSLPVTPGEPASISCQASQELVHMNRNTYLMWYQQKPGQAPRLLIYKVSNRFPGVPDRFSGSGSGTDFTLKISRVEAEDVGVYYCAQGTSVPFTFGQGTKLEIK",0
3,"H183/L072 VL H34I (antibody, name in Kabat numbering, V domains shown, Dual-Ig) VH: QVQLVESGGGLVQPGRSLRLSCAASGFTFSNAWMHWVRQAPGKGLEWVAQIKDKGNAYAAYYAPSVKGRFTISRDDSKNSIYLQMNSLKTEDTAVYYCHYVHYASASTVLPAFGVDAWGQGTTVTVSS VL: DIVMTQSPLSLPVTPGEPASISCQASQELVHMNRNTYLIWYQQKPGQAPRLLIYKVSNRFPGVPDRFSGSGSGTDFTLKISRVEAEDVGVYYCAQGTSVPFTFGQGTKLEIK",0
4,"H183/L072 VL H27dP (antibody, name in Kabat numbering, V domains shown, Dual-Ig) VH: QVQLVESGGGLVQPGRSLRLSCAASGFTFSNAWMHWVRQAPGKGLEWVAQIKDKGNAYAAYYAPSVKGRFTISRDDSKNSIYLQMNSLKTEDTAVYYCHYVHYASASTVLPAFGVDAWGQGTTVTVSS VL: DIVMTQSPLSLPVTPGEPASISCQASQELVPMNRNTYLHWYQQKPGQAPRLLIYKVSNRFPGVPDRFSGSGSGTDFTLKISRVEAEDVGVYYCAQGTSVPFTFGQGTKLEIK",0.8
5,"H183/L072 VL H34P (antibody, name in Kabat numbering, V domains shown, Dual-Ig) VH: QVQLVESGGGLVQPGRSLRLSCAASGFTFSNAWMHWVRQAPGKGLEWVAQIKDKGNAYAAYYAPSVKGRFTISRDDSKNSIYLQMNSLKTEDTAVYYCHYVHYASASTVLPAFGVDAWGQGTTVTVSS VL: DIVMTQSPLSLPVTPGEPASISCQASQELVHMNRNTYLPWYQQKPGQAPRLLIYKVSNRFPGVPDRFSGSGSGTDFTLKISRVEAEDVGVYYCAQGTSVPFTFGQGTKLEIK",0
6,"H183/L072 VL H34L (antibody, name in Kabat numbering, V domains shown, Dual-Ig) VH: QVQLVESGGGLVQPGRSLRLSCAASGFTFSNAWMHWVRQAPGKGLEWVAQIKDKGNAYAAYYAPSVKGRFTISRDDSKNSIYLQMNSLKTEDTAVYYCHYVHYASASTVLPAFGVDAWGQGTTVTVSS VL: DIVMTQSPLSLPVTPGEPASISCQASQELVHMNRNTYLLWYQQKPGQAPRLLIYKVSNRFPGVPDRFSGSGSGTDFTLKISRVEAEDVGVYYCAQGTSVPFTFGQGTKLEIK",0.1
7,"H183/L072 VL H34V (antibody, name in Kabat numbering, V domains shown, Dual-Ig) VH: QVQLVESGGGLVQPGRSLRLSCAASGFTFSNAWMHWVRQAPGKGLEWVAQIKDKGNAYAAYYAPSVKGRFTISRDDSKNSIYLQMNSLKTEDTAVYYCHYVHYASASTVLPAFGVDAWGQGTTVTVSS VL: DIVMTQSPLSLPVTPGEPASISCQASQELVHMNRNTYLVWYQQKPGQAPRLLIYKVSNRFPGVPDRFSGSGSGTDFTLKISRVEAEDVGVYYCAQGTSVPFTFGQGTKLEIK",0
8,"H183/L072 VL K50A (antibody, name in Kabat numbering, V domains shown, Dual-Ig) VH: QVQLVESGGGLVQPGRSLRLSCAASGFTFSNAWMHWVRQAPGKGLEWVAQIKDKGNAYAAYYAPSVKGRFTISRDDSKNSIYLQMNSLKTEDTAVYYCHYVHYASASTVLPAFGVDAWGQGTTVTVSS VL: DIVMTQSPLSLPVTPGEPASISCQASQELVHMNRNTYLHWYQQKPGQAPRLLIYAVSNRFPGVPDRFSGSGSGTDFTLKISRVEAEDVGVYYCAQGTSVPFTFGQGTKLEIK",0.1
9,"H183/L072 VL H27dK (antibody, name in Kabat numbering, V domains shown, Dual-Ig) VH: QVQLVESGGGLVQPGRSLRLSCAASGFTFSNAWMHWVRQAPGKGLEWVAQIKDKGNAYAAYYAPSVKGRFTISRDDSKNSIYLQMNSLKTEDTAVYYCHYVHYASASTVLPAFGVDAWGQGTTVTVSS VL: DIVMTQSPLSLPVTPGEPASISCQASQELVKMNRNTYLHWYQQKPGQAPRLLIYKVSNRFPGVPDRFSGSGSGTDFTLKISRVEAEDVGVYYCAQGTSVPFTFGQGTKLEIK",0.6
10,"H183/L072 VL H27dY (antibody, name in Kabat numbering, V domains shown, Dual-Ig) VH: QVQLVESGGGLVQPGRSLRLSCAASGFTFSNAWMHWVRQAPGKGLEWVAQIKDKGNAYAAYYAPSVKGRFTISRDDSKNSIYLQMNSLKTEDTAVYYCHYVHYASASTVLPAFGVDAWGQGTTVTVSS VL: DIVMTQSPLSLPVTPGEPASISCQASQELVYMNRNTYLHWYQQKPGQAPRLLIYKVSNRFPGVPDRFSGSGSGTDFTLKISRVEAEDVGVYYCAQGTSVPFTFGQGTKLEIK",0.5
11,"H183/L072 VL H27dI (antibody, name in Kabat numbering, V domains shown, Dual-Ig) VH: QVQLVESGGGLVQPGRSLRLSCAASGFTFSNAWMHWVRQAPGKGLEWVAQIKDKGNAYAAYYAPSVKGRFTISRDDSKNSIYLQMNSLKTEDTAVYYCHYVHYASASTVLPAFGVDAWGQGTTVTVSS VL: DIVMTQSPLSLPVTPGEPASISCQASQELVIMNRNTYLHWYQQKPGQAPRLLIYKVSNRFPGVPDRFSGSGSGTDFTLKISRVEAEDVGVYYCAQGTSVPFTFGQGTKLEIK",0.8
12,"H183/L072 VL H27dT (antibody, name in Kabat numbering, V domains shown, Dual-Ig) VH: QVQLVESGGGLVQPGRSLRLSCAASGFTFSNAWMHWVRQAPGKGLEWVAQIKDKGNAYAAYYAPSVKGRFTISRDDSKNSIYLQMNSLKTEDTAVYYCHYVHYASASTVLPAFGVDAWGQGTTVTVSS VL: DIVMTQSPLSLPVTPGEPASISCQASQELVTMNRNTYLHWYQQKPGQAPRLLIYKVSNRFPGVPDRFSGSGSGTDFTLKISRVEAEDVGVYYCAQGTSVPFTFGQGTKLEIK",0.6
13,"H183/L072 VL H27dL (antibody, name in Kabat numbering, V domains shown, Dual-Ig) VH: QVQLVESGGGLVQPGRSLRLSCAASGFTFSNAWMHWVRQAPGKGLEWVAQIKDKGNAYAAYYAPSVKGRFTISRDDSKNSIYLQMNSLKTEDTAVYYCHYVHYASASTVLPAFGVDAWGQGTTVTVSS VL: DIVMTQSPLSLPVTPGEPASISCQASQELVLMNRNTYLHWYQQKPGQAPRLLIYKVSNRFPGVPDRFSGSGSGTDFTLKISRVEAEDVGVYYCAQGTSVPFTFGQGTKLEIK",0.6
14,"H183/L072 VL H27dW (antibody, name in Kabat numbering, V domains shown, Dual-Ig) VH: QVQLVESGGGLVQPGRSLRLSCAASGFTFSNAWMHWVRQAPGKGLEWVAQIKDKGNAYAAYYAPSVKGRFTISRDDSKNSIYLQMNSLKTEDTAVYYCHYVHYASASTVLPAFGVDAWGQGTTVTVSS VL: DIVMTQSPLSLPVTPGEPASISCQASQELVWMNRNTYLHWYQQKPGQAPRLLIYKVSNRFPGVPDRFSGSGSGTDFTLKISRVEAEDVGVYYCAQGTSVPFTFGQGTKLEIK",0.5
15,"H183/L072 VL H27dM (antibody, name in Kabat numbering, V domains shown, Dual-Ig) VH: QVQLVESGGGLVQPGRSLRLSCAASGFTFSNAWMHWVRQAPGKGLEWVAQIKDKGNAYAAYYAPSVKGRFTISRDDSKNSIYLQMNSLKTEDTAVYYCHYVHYASASTVLPAFGVDAWGQGTTVTVSS VL: DIVMTQSPLSLPVTPGEPASISCQASQELVMMNRNTYLHWYQQKPGQAPRLLIYKVSNRFPGVPDRFSGSGSGTDFTLKISRVEAEDVGVYYCAQGTSVPFTFGQGTKLEIK",0.6
16,"H183/L072 VL H27dG (antibody, name in Kabat numbering, V domains shown, Dual-Ig) VH: QVQLVESGGGLVQPGRSLRLSCAASGFTFSNAWMHWVRQAPGKGLEWVAQIKDKGNAYAAYYAPSVKGRFTISRDDSKNSIYLQMNSLKTEDTAVYYCHYVHYASASTVLPAFGVDAWGQGTTVTVSS VL: DIVMTQSPLSLPVTPGEPASISCQASQELVGMNRNTYLHWYQQKPGQAPRLLIYKVSNRFPGVPDRFSGSGSGTDFTLKISRVEAEDVGVYYCAQGTSVPFTFGQGTKLEIK",0.6
17,"H183/L072 VL H27dS (antibody, name in Kabat numbering, V domains shown, Dual-Ig) VH: QVQLVESGGGLVQPGRSLRLSCAASGFTFSNAWMHWVRQAPGKGLEWVAQIKDKGNAYAAYYAPSVKGRFTISRDDSKNSIYLQMNSLKTEDTAVYYCHYVHYASASTVLPAFGVDAWGQGTTVTVSS VL: DIVMTQSPLSLPVTPGEPASISCQASQELVSMNRNTYLHWYQQKPGQAPRLLIYKVSNRFPGVPDRFSGSGSGTDFTLKISRVEAEDVGVYYCAQGTSVPFTFGQGTKLEIK",0.6
18,"H183/L072 VL H27dQ (antibody, name in Kabat numbering, V domains shown, Dual-Ig) VH: QVQLVESGGGLVQPGRSLRLSCAASGFTFSNAWMHWVRQAPGKGLEWVAQIKDKGNAYAAYYAPSVKGRFTISRDDSKNSIYLQMNSLKTEDTAVYYCHYVHYASASTVLPAFGVDAWGQGTTVTVSS VL: DIVMTQSPLSLPVTPGEPASISCQASQELVQMNRNTYLHWYQQKPGQAPRLLIYKVSNRFPGVPDRFSGSGSGTDFTLKISRVEAEDVGVYYCAQGTSVPFTFGQGTKLEIK",0.6
19,"H183/L072 VL H27dN (antibody, name in Kabat numbering, V domains shown, Dual-Ig) VH: QVQLVESGGGLVQPGRSLRLSCAASGFTFSNAWMHWVRQAPGKGLEWVAQIKDKGNAYAAYYAPSVKGRFTISRDDSKNSIYLQMNSLKTEDTAVYYCHYVHYASASTVLPAFGVDAWGQGTTVTVSS VL: DIVMTQSPLSLPVTPGEPASISCQASQELVNMNRNTYLHWYQQKPGQAPRLLIYKVSNRFPGVPDRFSGSGSGTDFTLKISRVEAEDVGVYYCAQGTSVPFTFGQGTKLEIK",0.5
20,"H183/L072 VL H27dR (antibody, name in Kabat numbering, V domains shown, Dual-Ig) VH: QVQLVESGGGLVQPGRSLRLSCAASGFTFSNAWMHWVRQAPGKGLEWVAQIKDKGNAYAAYYAPSVKGRFTISRDDSKNSIYLQMNSLKTEDTAVYYCHYVHYASASTVLPAFGVDAWGQGTTVTVSS VL: DIVMTQSPLSLPVTPGEPASISCQASQELVRMNRNTYLHWYQQKPGQAPRLLIYKVSNRFPGVPDRFSGSGSGTDFTLKISRVEAEDVGVYYCAQGTSVPFTFGQGTKLEIK",0.6
21,"H183/L072 VL H27dV (antibody, name in Kabat numbering, V domains shown, Dual-Ig) VH: QVQLVESGGGLVQPGRSLRLSCAASGFTFSNAWMHWVRQAPGKGLEWVAQIKDKGNAYAAYYAPSVKGRFTISRDDSKNSIYLQMNSLKTEDTAVYYCHYVHYASASTVLPAFGVDAWGQGTTVTVSS VL: DIVMTQSPLSLPVTPGEPASISCQASQELVVMNRNTYLHWYQQKPGQAPRLLIYKVSNRFPGVPDRFSGSGSGTDFTLKISRVEAEDVGVYYCAQGTSVPFTFGQGTKLEIK",0.7
